Data from patent US6869925 (Amgen, dated 2005).
pKd: −log10 of the molar value.

Experiments:
[1] = molecular target: SLPI binding sites on HuT78 cells (human T cell line) (human); test: competition with 125I-SLPI, intact HuT78 cells, cold SLPI at 0.024 nM
[2] = molecular target: SLPI binding sites on U937 cells (human monocyte cell line; intact cells, PMA-induced cells or plasma membranes) (human); test: Scatchard plot of 125I-SLPI saturation binding, intact U937 cells
[3] = molecular target: SLPI binding sites on U937 cells (human monocyte cell line; intact cells, PMA-induced cells or plasma membranes) (human); test: 125I-SLPI saturation binding, intact U937 cells, *SLPI at 1280 pM
[4] = molecular target: SLPI binding sites on U937 cells (human monocyte cell line; intact cells, PMA-induced cells or plasma membranes) (human); test: competition with 125I-SLPI, U937 plasma membranes, competitor at 83.9 nM
[5] = molecular target: SLPI binding sites on U937 cells (human monocyte cell line; intact cells, PMA-induced cells or plasma membranes) (human); test: competition with 125I-SLPI, U937 plasma membranes, competitor at 8.20 nM
[6] = molecular target: SLPI binding sites on U937 cells (human monocyte cell line; intact cells, PMA-induced cells or plasma membranes) (human); test: 125I-SLPI saturation binding, U937 cells plus PMA, *SLPI at 20,480 pM
[7] = molecular target: SLPI binding sites on HuT78 cells (human T cell line) (human); test: competition with 125I-SLPI, intact HuT78 cells, cold SLPI at 84 nM
[8] = molecular target: SLPI binding sites on U937 cells (human monocyte cell line; intact cells, PMA-induced cells or plasma membranes) (human); test: competition with 125I-SLPI, intact U937 cells, competitor at 0.078 nM
[9] = molecular target: SLPI binding sites on U937 cells (human monocyte cell line; intact cells, PMA-induced cells or plasma membranes) (human); test: competition with 125I-SLPI, intact U937 cells, competitor at 0.024 nM
[10] = molecular target: SLPI binding sites on HuT78 cells (human T cell line) (human); test: competition with 125I-SLPI, intact HuT78 cells, competitor at 84 nM
[11] = molecular target: SLPI binding sites on U937 cells (human monocyte cell line; intact cells, PMA-induced cells or plasma membranes) (human); test: 125I-SLPI saturation binding, U937 cells plus PMA, *SLPI at 10,240 pM
[12] = molecular target: SLPI binding sites on HuT78 cells (human T cell line) (human); test: competition with 125I-SLPI, intact HuT78 cells, cold SLPI at 860 nM
[13] = molecular target: SLPI binding sites on U937 cells (human monocyte cell line; intact cells, PMA-induced cells or plasma membranes) (human); test: competition with 125I-SLPI, intact U937 cells, competitor at 0.25 nM
[14] = molecular target: SLPI binding sites on HuT78 cells (human T cell line) (human); test: competition with 125I-SLPI, intact HuT78 cells, competitor at 0 nM
[15] = molecular target: SLPI binding sites on U937 cells (human monocyte cell line; intact cells, PMA-induced cells or plasma membranes) (human); test: competition with 125I-SLPI, intact U937 cells, cold SLPI at 860 nM
[16] = molecular target: SLPI binding sites on HuT78 cells (human T cell line) (human); test: competition with 125I-SLPI, intact HuT78 cells, cold SLPI at 0.078 nM
[17] = molecular target: SLPI binding sites on U937 cells (human monocyte cell line; intact cells, PMA-induced cells or plasma membranes) (human); test: competition with 125I-SLPI, intact U937 cells, cold SLPI at 84 nM
[18] = molecular target: SLPI binding sites on HuT78 cells (human T cell line) (human); test: 125I-SLPI saturation binding, intact HuT78 cells, *SLPI at 320 pM
[19] = molecular target: SLPI binding sites on U937 cells (human monocyte cell line; intact cells, PMA-induced cells or plasma membranes) (human); test: 125I-SLPI saturation binding, U937 cells plus PMA, *SLPI at 5,120 pM
[20] = molecular target: SLPI binding sites on U937 cells (human monocyte cell line; intact cells, PMA-induced cells or plasma membranes) (human); test: 125I-SLPI saturation binding, U937 cells minus PMA, *SLPI at 320 pM
[21] = molecular target: SLPI binding sites on U937 cells (human monocyte cell line; intact cells, PMA-induced cells or plasma membranes) (human); test: 125I-SLPI saturation binding, intact U937 cells, *SLPI at 10,240 pM
[22] = molecular target: SLPI binding sites on U937 cells (human monocyte cell line; intact cells, PMA-induced cells or plasma membranes) (human); test: 125I-SLPI saturation binding, intact U937 cells, *SLPI at 640 pM
[23] = molecular target: SLPI binding sites on HuT78 cells (human T cell line) (human); test: competition with 125I-SLPI, intact HuT78 cells, cold SLPI at 2.6 nM
[24] = molecular target: SLPI binding sites on U937 cells (human monocyte cell line; intact cells, PMA-induced cells or plasma membranes) (human); test: 125I-SLPI saturation binding, intact U937 cells, *SLPI at 2560 pM
[25] = molecular target: SLPI binding sites on U937 cells (human monocyte cell line; intact cells, PMA-induced cells or plasma membranes) (human); test: competition with 125I-SLPI, intact U937 cells, competitor at 0 nM
[26] = molecular target: SLPI binding sites on HuT78 cells (human T cell line) (human); test: competition with 125I-SLPI, intact HuT78 cells, cold SLPI at 0.80 nM

Sequence of serine leukocyte protease inhibitor (SLPI) (P03973 26-132): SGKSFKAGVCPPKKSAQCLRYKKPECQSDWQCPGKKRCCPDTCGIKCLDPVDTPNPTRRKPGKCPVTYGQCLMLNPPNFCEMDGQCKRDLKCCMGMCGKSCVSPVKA

% *SLPI BOUND [1]: 88%
pKd [2]: 8.70
bound *SLPI (pM) [3]: 217 pM
bound per free [3]: 0.204
sites bound per cell (sites per cell) [3]: 13100
specific cpm [3]: 8650 cpm
CPM *SLPI BOUND [4]: 2070 cpm
CPM *SLPI BOUND [5]: 5710 cpm
bound pM [6]: 255 pM
bound per free [6]: 0.0126
sites bound per cell (sites per cell) [6]: 15400
specific cpm [6]: 2720 cpm
% *SLPI BOUND [7]: 9.3%
% *SLPI BOUND [8]: 111%
% *SLPI BOUND [9]: 111%
% *SLPI BOUND [10]: 27%
bound pM [11]: 274 pM
bound per free [11]: 0.028
sites bound per cell (sites per cell) [11]: 16500
specific cpm [11]: 2930 cpm
% *SLPI BOUND [12]: 8.7%
% *SLPI BOUND [13]: 106%
% *SLPI BOUND [14]: 100%
% *SLPI BOUND [15]: 0%
% *SLPI BOUND [16]: 90%
% *SLPI BOUND [17]: 3.5%
bound pM [18]: 2.53 pM
bound per free [18]: 0.0079
sites bound per cell (sites per cell) [18]: 152
specific cpm [18]: 101 cpm
bound pM [19]: 135 pM
bound per free [19]: 0.027
sites bound per cell (sites per cell) [19]: 8130
specific cpm [19]: 1440 cpm
bound *SLPI (pM) [20]: 101 pM
bound per free [20]: 0.461
sites bound per cell (sites per cell) [20]: 6080
specific cpm [20]: 1080 cpm
bound *SLPI (pM) [21]: 463 pM
bound per free [21]: 0.047
sites bound per cell (sites per cell) [21]: 27900
specific cpm [21]: 18500 cpm
bound *SLPI (pM) [22]: 116 pM
bound per free [22]: 0.221
sites bound per cell (sites per cell) [22]: 6990
specific cpm [22]: 4630 cpm
% *SLPI BOUND [23]: 56%
bound *SLPI (pM) [24]: 339 pM
bound per free [24]: 0.153
sites bound per cell (sites per cell) [24]: 20400
specific cpm [24]: 13500 cpm
% *SLPI BOUND [25]: 109%
% *SLPI BOUND [26]: 62%
Substance: serine leukocyte protease inhibitor (SLPI) (from UniProt P03973 26-132)
